Data published in patent publication US20260209347A1 (BIORAY PHARMACEUTICAL, published 2026).
Like-named read-outs stand apart in the source and are kept apart here.

Legend:
[1] = target: human NKG2A/CD94 on cells (CHOK1-hNKG2A/CD94) (human) (UniProt P26715); experiment: cell-based or functional assay
[2] = target: human NKG2A/CD94 on cells (CHOK1-hNKG2A/CD94) (human) (UniProt P26715); experiment: cell-based or functional assay; remark: listed apart in the source
[3] = target: human NKG2A/CD94 on cells (CHOK1-hNKG2A/CD94) (human) (UniProt P26715); experiment: FACS on human NKG2A overexpressing cell line
[4] = target: human NKG2A/CD94 on cells (CHOK1-hNKG2A/CD94) (human, UniProt P26715 1-233; Q13241 1-179); experiment: cell-based or functional assay
Chain of human NKG2A/CD94 on cells (CHOK1-hNKG2A/CD94) (P26715 whole entry, chain 1 of 2): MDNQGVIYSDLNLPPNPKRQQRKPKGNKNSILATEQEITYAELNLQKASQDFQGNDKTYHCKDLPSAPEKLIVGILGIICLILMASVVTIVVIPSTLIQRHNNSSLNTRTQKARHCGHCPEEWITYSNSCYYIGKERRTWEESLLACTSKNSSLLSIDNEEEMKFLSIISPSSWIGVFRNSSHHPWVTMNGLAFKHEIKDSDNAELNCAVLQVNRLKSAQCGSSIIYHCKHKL
Chain of human NKG2A/CD94 on cells (CHOK1-hNKG2A/CD94) (Q13241 whole entry, chain 2 of 2): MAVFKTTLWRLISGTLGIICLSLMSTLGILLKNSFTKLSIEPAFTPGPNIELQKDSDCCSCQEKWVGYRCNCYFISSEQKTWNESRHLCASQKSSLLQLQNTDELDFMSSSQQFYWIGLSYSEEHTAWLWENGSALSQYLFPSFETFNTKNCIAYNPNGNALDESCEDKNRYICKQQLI

[5] = target: T1, human NKG2C/CD94 on cells (CHOK1-hNKG2C/CD94) (human, UniProt P26717 1-231; Q13241 1-179); experiment: FACS on CHOK1-hNKG2C/CD94 cells
T1 construct: whole, on cells; also called human NKG2C overexpressing cells; human NKG2C overexpressing cell line
T1 sequence (P26717 whole entry, chain 1 of 2): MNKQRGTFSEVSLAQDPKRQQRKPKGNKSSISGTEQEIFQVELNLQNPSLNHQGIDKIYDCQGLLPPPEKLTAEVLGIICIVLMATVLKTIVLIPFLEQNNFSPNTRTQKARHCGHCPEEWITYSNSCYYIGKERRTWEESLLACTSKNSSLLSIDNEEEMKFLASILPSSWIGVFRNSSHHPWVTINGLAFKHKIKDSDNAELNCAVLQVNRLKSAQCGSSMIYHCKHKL
T1 sequence (Q13241 whole entry, chain 2 of 2): as the sequence (Q13241 whole entry, chain 2 of 2) above
Description: Human NKG2A overexpressing cells (CHOK1-hNKG2A/CD94), cyno NKG2A overexpressing cells (CHOK1-cynoNKG2A/CD94), and human NKG2C overexpressing cells (CHOK1-hNKG2C/CD94) were digested with TrypLE (purchased from Gibco). Cells were collected by centrifugation, then resuspended to 2E6/mL with FACS buffer (PBS+2% FBS). The cells were added to a 96-well cell plate at 100 μL per well, and the supernatant was discarded after centrifugation. The antibody was gradiently diluted with FACS buffer (initial concentration of 200 nM, 5-fold dilution, including point 0, a total of 10 concentration points), added to the cells at 100 μL/well, mixed, and incubated at 4° C. for 1 hour. The incubated cells were centrifuged at 300 g for 5 min and washed twice with FACS buffer. Secondary antibody, anti-human IgG fluorescent secondary antibody 488 (purchased from Thermofisher A-11013), was added, incubated at 4° C. for one hour, then the cells were washed twice with FACS buffer, resuspended in PBS and analyzed by FACS instrument.

Chain of human NKG2A/CD94 on cells (CHOK1-hNKG2A/CD94) (human) (P26715 whole entry, chain 1 of 2): as the sequence (P26715 whole entry, chain 1 of 2) above
Chain of human NKG2A/CD94 on cells (CHOK1-hNKG2A/CD94) (human) (Q13241 whole entry, chain 2 of 2, further chain): as the sequence (Q13241 whole entry, chain 2 of 2) above

Binder | IC50 (nM), killing of LCL721.221 target cells by NK92 cells [4] [nM] | also measured
NKG2A positive control antibody Z270 (Monalizumab) (antibody, INN chains, looked up, V domains shown) VH: QVQLVQSGAEVKKPGASVKVSCKASGYTFTSYWMNWVRQAPGQGLEWMGRIDPYDSETHYAQKLQGRVTMTTDTSTSTAYMELRSLRSDDTAVYYCARGGYDFDVGTLYWFFDVWGQGTTVTVSS VL: DIQMTQSPSSLSASVGDRVTITCRASENIYSYLAWYQQKPGKAPKLLIYNAKTLAEGVPSRFSGSGSGTDFTLTISSLQPEDFATYYCQHHYGTPRTFGGGTKVEIK |  | IC50 (nM), killing of LCL721.221 target cells by NK92 cells [1]: 1.11 nM; IC50 (nM), killing of LCL721.221 target cells by NK92 cells [2]: 0.57 nM; Maximum MFI [3]: 16100 MFI
hu-43VH-13/VL-11 (antibody, human IgG4 S228P, kappa, V domains shown) VH: QVQLVQSGAEVKKPGASVKVSCKASGFNIQNTYIHWVRQAPGQGLEWIGRIDPASGSTEYAPKFQGRATITADTSTNTGYMELSSLRSEDTAVYYCARYGNFLYYYSMDYWGQGTLVTVSS VL: DIVMTQSPLSLPVTPGEPASISCRSNKSLLHSNGNTYLYWFLQKPGQSPQLLIYRMSNLASGVPDRFSGSGSGTDFTLKISRVEAEDVGVYYCMQHLENPYTFGQGTKLEIKR | 0.37 | 
hu-43VH-11/VL-21 (antibody, human IgG4 S228P, kappa, V domains shown) VH: QVQLVQSGAEVKKPGASVKVSCKASGFNIQNTYIHWVRQAPGQGLEWMGRIDPASGSTEYAPKFQGRVTMTADTSTNTGYMELSSLRSEDTAVYYCARYGNFLYYYSMDYWGQGTLVTVSS VL: DIVMTQSPLSLPVTLGQPASISCRSNKSLLHSNGNTYLYWFQQRPGQSPRLLIYRMSNLASGVPDRFSGSGSGTDFTLKISRVEAEDVGVYYCMQHLENPYTFGQGTKLEIKR | 0.33 | 
cAb-43 (antibody, human IgG4 S228P, kappa, V domains shown, human-mouse chimeric antibody, human IgG4 constant region; also called antibody number 43; NKG2A chimeric antibody) VH: EVQLQQSVAELVRPGASVKLSCTASGFNIQNTYIHWVKQRPEQGLEWIGRIDPASGSTEYAPKFQGKATITADTSSNSGYLQLSSLTSEDTAIYYCARYGNFLYYYSMDYWGQGTSVTVSA VL: DIVMTQAAPSVPVTPGESVSISCRSNKSLLHSNGNTYLYWFLQRPGQSPQLLIYRMSNLASGVPDRFSGSGSGTAFTLRISRVEAEDVGVYYCMQHLENPYTFGGGTKLEIKR | 0.28 | binding result [5]: no binding (tested: initial concentration of 200 nM)
hu-43VH-21/VL-11 (antibody, human IgG4 S228P, kappa, V domains shown) VH: QVQLVQSGAEVKKPGASVKVSCKASGFNIQNTYIHWVRQAPGQGLEWMGRIDPASGSTEYAPKFQGRVTMTADTSINTGYMELSRLRSDDTAVYYCARYGNFLYYYSMDYWGQGTLVTVSS VL: DIVMTQSPLSLPVTPGEPASISCRSNKSLLHSNGNTYLYWFLQKPGQSPQLLIYRMSNLASGVPDRFSGSGSGTDFTLKISRVEAEDVGVYYCMQHLENPYTFGQGTKLEIKR | 0.52 | 
hu-43VH-11/VL-31 (antibody, human IgG4 S228P, kappa, V domains shown) VH: QVQLVQSGAEVKKPGASVKVSCKASGFNIQNTYIHWVRQAPGQGLEWMGRIDPASGSTEYAPKFQGRVTMTADTSTNTGYMELSSLRSEDTAVYYCARYGNFLYYYSMDYWGQGTLVTVSS VL: DIVMTQTPLSLSVTPGQPASISCRSNKSLLHSNGNTYLYWFLQKPGQPPQLLIYRMSNLASGVPDRFSGSGSGTDFTLKISRVEAEDVGVYYCMQHLENPYTFGQGTKLEIRT | 0.45 | 
